Assay results reported in the DeepSol protein solubility set.

Assay: soluble on expression in E. coli; label from the status in PepcDB or PDB records

Which “soluble on expression in E. coli” value does the source give for “MGSDKIHHHHHHMAHHHGMRFPTPLIPATLIKRYKRFLADCRLEDGREITAHCANPGSMMGLAEPGMRVWLEPNDDPKKKLKYGWRLVEHTNGHFTGVDTSVPNRALKAALEAHEIAEFAAYSEVQAEVKYGQNSRIDFLLTDAKLPRCYVEVKSVTLSRQPGLAEFPDSVTARGTKHLRELAAMAEAGHRAVMLYLVQRTDCDRFALAADIDPAYAAEFETAHAKGVERLVIGTTITPEGVKIGDILPS” here?
Its value is “not soluble”.

For “KSIVKIRNRMAAETQTLNFGPEWLRALSSGGSITSPPLSPALPKYKLADYRYGREEMLALFLKDNKIPSDLLDKEFLPILQEEPLPPLALVPFTEEEQRNFSMSVNSAAVLRLTGRGGGGTVVGAPRGRSSSRGRGRGRGECGFYQRSFDEVEGVFGRGGGREMHRSQSWEERGDRRFEKPGRKDVGKKNGYYCMYSPVLLLGQPLCQGRPNFEEGGPTSVGRKHEFIRSESENWRIFREEQNGEDEDGGWRLAGSRRDGERWRPHSPDGPRSAGWREHMERRRRFEFDFRDRDDERGYRRVRSGSGSIDDDRDSLPEWCLEDAEEEMGTFDSSGAFLSLKKVQKEPIPEEQEMDFRPVDEGEECSDSEGSHNEEAKEPDKTNKKEGEKTDRVGVASEETPQTSSSSARPGTPSDHQSQEASQFERKDEPKTEQTEKAEEETRMENSLPAKVPSRGDEMVADVQQPLSQIPSDTASPLLILPPPVPNPSPTLRPVETPVVGAPGMGSVSTEPDDEEGLKHLEQQAEKMVAYLQDSALDDERLASKLQEHRAKGVSIPLMHEAMQKWYYKDPQGEIQGPFNNQEMAEWFQAGYFTMSLLVKRACDESFQPLGDIMKMWGRVPFSPGPAPPPHMGELDQERLTRQQELTALYQMQHLQYQQFLIQQQYAQVLAQQQKAALSSQQQQQLALLLQQFQTLKMRISDQNIIPSVTRSVSVPDTGSIWELQPTASQPTVWEGGSVWDLPLDTTTPGPALEQLQQLEKAKAAKLEQERREAEMRAKREEEERKRQEELRRQQEEILRRQQEEERKRREEEELARRKQEEALRRQREQEIALRRQREEEERQQQEEALRRLEERRREEEERRKQEELLRKQEEEAAKWAREEEEAQRRLEENRLRMEEEAARLRHEEEERKRKELEVQRQKELMRQRQQQQEALRRLQQQQQQQQLAQMKLPSSSTWGQQSNTTACQSQATLSLAEIQKLEEERERQLREEQRRQQRELMKALQQQQQQQQQKLSGWGNVSKPSGTTKSLLEIQQEEARQMQKQQQQQQQHQQPNRARNNTHSNLHTSIGNSVWGSINTGPPNQWASDLVSSIWSNADTKNSNMGFWDDAVKEVGPRNSTNKNKNNASLSKSVGVSNRQNKKVEEEEKLLKLFQGVNKAQDGFTQWCEQMLHALNTANNLDVPTFVSFLKEVESPYEVHDYIRAYLGDTSEAKEFAKQFLERRAKQKANQQRQQQQLPQQQQQQPPQQPPQQPQQQDSVWGMNHSTLHSVFQTNQSNNQQSNFEAVQSGKKKKKQKMVRADPSLLGFSVNASSERLNMGEIETLDDY”, which “soluble on expression in E. coli” value is on record?
The value was “soluble”.

For “MMRCPECSTEGWRVLPLTVGAHVKEGLWSKIKGDFYFCSLESCEVVYFNEQTVFRKGELKTRVGVKEREEPKPVCYCNRVTEKMLLEAAEKFGKEKAVEITGAGKGKWCVVTNPSGRCCHWHLERLGFPVGGEKKAAKRVEIKLDGLTCMGCVSAVKAALEEAGANVVEIGLDRAVVEVDEEAELQKLVEAVEGAGYSARLEKR”, which “soluble on expression in E. coli” value is on record?
The value was “not soluble”.

With “MESLNEYMDKIINRLKAVNEKDELVDEGMRKLQKCQEKIMKTRIDAQKHIDERHEQQSFEQQLLNKNMFETEQLEEKLKRLDDENKIGNEREFNKKLEAISAKWTDDVNLLKTTPNEPNDGNRKKLSNLSNILV” as the sequence, how does the “soluble on expression in E. coli” value read?
Its value is “not soluble”.

For “MASSYSASAEPARVRALVYGHHGDPAKVVELKNLELAAVRGSDVRVKMLAAPINPSDINMIQGNYGLLPELPAVGGNEGVAQVVAVGSNVTGLKPGDWVIPANAGLGTWRTEAVFSEEALIQVPSDIPLQSAATLGVNPCTAYRMLMDFEQLQPGDSVIQNASNSGVGQAVIQIAAALGLRTINVVRDRPDIQKLSDRLKSLGAEHVITEEELRRPEMKNFFKDMPQPRLALNCVGGKSSTELLRQLARGGTMVTYGGMAKQPVVASVSLLIFKDLKLRGFWLSQWKKDHSPDQFKELILTLCDLIRRGQLTAPACSQVPLQDYQSALEASMKPFISSKQILTM”, which “soluble on expression in E. coli” value is on record?
Its value is “soluble”.

For “MDSSNYFYGGNNICIINTKWGKHSGIGGYAEIIDTLVGNFTNISSWAKIGIRDHIHTNFLICDFVYKDNDHIMPPGISSFEDYWVKIGNDVWVGTNVTILRGVEVGDGAVIAAGSVVTKSIPPYAIVGGNPAKFIKWRFPFEVREKLLEIKLEHHHHHH”, which “soluble on expression in E. coli” value is on record?
Its value is “not soluble”.

For “MIELPVVPSASDRKSKPDWLRVKLPIGKEYTKLRALVDEHKLHTICQSGNCPNMGECWGAGTATFMILGNVCTRSCSFCAVATGRPTEYDIDEPKRVAEAVRLMNVKHCVITSVNRDELKDKGAEVWYQTVVRVKEESPQTTIETLIPDVKSDWASLERMISGGQEVVSHNMETVERLYRRVRPQAKYSRSLEEIQRIKAFGKRTKSGIMLGLGETKDEVLKAMDDLVAHGLDVLTLGQYLQPTKMHLEVAEFIHPDQFAEYKEIGLSKGLNYVESGPLVRSSYHAEKHI”, which “soluble on expression in E. coli” value is on record?
The value was “not soluble”.

For “MPNLNAVIAQNISKGDVIWVPYRKDPMWPALVNNAYPKKVSYSFFPLAPGVDETKRSRFSCAPKLTYALVTTEPLPENANSDLKKAHRAACEYLSSNGKTRGSNIQSLGEAAGGSEKMKKMNGEVTKNKTGKPEKRKKKVDSEQQENEEDDEDLMSPVSKKPSSSERSTPSGSQQQPPITEEQSKSMMKMIDDRFEVLINEIWKSDEVAQSKNQTMKDKMTIKLKNNQFLKESDYDIVFERIFNFIRMQNPSLSFISTFNITSSHIIPHILITCYSACRNLDYQTSKEIFYQLNTRVLGLDSSMSIPVTDHLEELCRLACDESDAIQILENEHGDKISKDGTATQTRGNVFEEMR”, which “soluble on expression in E. coli” value is on record?
Its value is “not soluble”.

With “MKYFNVGKIVNTQGLRGEVRVLSVTDFADERFKKGSQLALFDKKDHFAMTVEIASHRKHKNFDIVKFKGLYHINDVEKYRDFTLKVTEDHLADLEDGEFYYHEIIGLDVYENDILIGQVKEILQPGANDVWVVKRKGKKDLLLPYIPSVILKVDVPNGRIDVTVLEGLDDENLEHHHHHH” as the sequence, how does the “soluble on expression in E. coli” value read?
The value was “soluble”.

With “MSDATLHNTTQDPDDFAVQIADQVESFLVAVTEVAKGDEPDSAVPFLLLEVSQLLLAGGRLGAHEDIVPDERYEPDMGPEPDVDELRERLATMLDPVDVYSEVFDPYEPRKAPVPARISDDLADVIADLRHGMAHYRAGRTTEALWWWQFSYFSNWGSTASATLRALQSLVAHVRLNQPLEELDGLDTDQDLSEDALAEEAGRVMASEIAGPLGLRTVRLEHHHHHH” as the sequence, how does the “soluble on expression in E. coli” value read?
The value was “soluble”.

For “MGSDKIHHHHHHMAFAQLQIVSSLADAYSKDGADALILIGNFDSIDDSALAETIQQAQITDQRVGKQPLLLKADGVPGQRLVAAPTGPLNRDFDDVRQVFDAAHAAAKVAQDAGARHPVIALNNVNVNDERYQQAFLAAYLGFCQALYQPLEAREAHGEEAIEPTQNVILVGELDVEWAMAVEAGKRVARDLAGTEPERMAPPKFAEYCRQAFAHTSVKVTVIDDYQQLQHEYPLLAAVGRSSMAVERHRPCVIRLEYHGNNPERTVMFAGKGIVYDTGGADLKTGGHMAGMSRDKGGAAGVAGFLKTVSELQPEHLNVVAEIGAVRNSIGSDAFVADEIITGHSGKRVRIGNTDAEGRLIMADLLSHLREEAAKSDGEHELYTVATLTGHAALSKGPYSALVPNGHARRQNLAQALFNAGETYGDPTEISWSRREDFDFVKGRTLCDDLLSSNNGPSAATPRGHQFPMAFLTGVSGLDNHGIDSEHPISYIHIDIAGSGVEGGDWQHGKPTAAPVTCLAGHYLKK”, which “soluble on expression in E. coli” value is on record?
Its value is “not soluble”.

For “AIAATSELSCEVSEENCERREAFWAEWKDLTLSTRPEEGCSLHEEDTQRHETYHQQGQCQVLVQRSPWLMMRMGILGRGLQEYQLPYQRVLPLPIFTPAKMGATKEEREDTPIQLQELLALETALGGQCVDRQEVAEITKQLPPVVPVSKPGALRRSLSRSMSQEAQRG”, which “soluble on expression in E. coli” value is on record?
The value was “soluble”.

With “EQIDRWNQVSEYIERLNVLEDNGSNTLIIASGIAYPYVKEITEEEGLNANIFRLVTPVPIPEKSILDSMTRVKKVLVVEENDPVVELQLSQLMVKNGIMKELHGKDLVSPIGELTLEKVRGAIMGFFGKEYVRSYPDDVSLRTRPPALCPGCPHRSSFYDIKKGLSKVSMQKAFFSGDIGCYTLGALPPFNEQDSATNMGSSVGISNGVFRATGQIPVSIIGDSTFFHSGLQGVANAVYNGTPEIIIVLDNRSTAMTGQQPSPSTHISIENVARAMGIDFVDTFDPFDVKEGSDAVQKAAEYVKENKKPALIVAKRACALEVLEKVGDYTMKAEVDLEKCTGCSICYDFFTCPSILPLSNKKAFIDDSCIGCGACVEVCPFNAIK” as the sequence, how does the “soluble on expression in E. coli” value read?
The value was “not soluble”.
